Experimental data taken from patent publication US20110129470A1.

Target: CD33 (cell surface antigen on HL60 and NB4 cells) (UniProt P20138)
Assay: cell-based or functional assay

Sequence of CD33 (cell surface antigen on HL60 and NB4 cells) (P20138 18-364 limits assumed): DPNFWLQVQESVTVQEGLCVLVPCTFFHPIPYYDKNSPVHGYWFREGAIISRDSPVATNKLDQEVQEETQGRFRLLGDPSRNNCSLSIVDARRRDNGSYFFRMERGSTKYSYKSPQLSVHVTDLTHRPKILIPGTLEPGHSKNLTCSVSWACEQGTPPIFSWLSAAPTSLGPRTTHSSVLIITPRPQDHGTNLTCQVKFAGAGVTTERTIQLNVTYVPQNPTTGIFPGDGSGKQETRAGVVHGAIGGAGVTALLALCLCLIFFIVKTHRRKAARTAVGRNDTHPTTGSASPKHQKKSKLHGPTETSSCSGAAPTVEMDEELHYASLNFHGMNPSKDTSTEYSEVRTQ
Sequence of HuM195-dCK conjugate (wild type dCK chemically conjugated to the humanized anti-CD33 monoclonal antibody HuM195) (B2R8V6 whole entry): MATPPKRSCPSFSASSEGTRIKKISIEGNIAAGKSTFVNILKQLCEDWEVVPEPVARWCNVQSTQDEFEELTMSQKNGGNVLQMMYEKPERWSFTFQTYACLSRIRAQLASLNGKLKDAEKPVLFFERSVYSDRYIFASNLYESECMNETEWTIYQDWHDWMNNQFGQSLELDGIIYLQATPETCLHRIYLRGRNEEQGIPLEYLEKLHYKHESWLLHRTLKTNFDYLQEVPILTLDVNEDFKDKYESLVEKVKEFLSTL

For “HuM195-dCK conjugate (wild type dCK chemically conjugated to the humanized anti-CD33 monoclonal antibody HuM195)”, the additional cell killing over AraC alone (Annexin V and propidium iodide apoptosis assay), HL60 cells was 20%, the cell death (Annexin V and propidium iodide apoptosis assay), HL60 cells, conjugate in combination with AraC 1 µM was 70% and the cell killing (apoptosis assay), NB4 cells, conjugate with AraC 250 nM was 65%.
